{
  "source": "paper PMC4161250",
  "proteins": {"B1": {"name": "StpA (Enterococcus faecium DO) (protein)", "chain": "MQIEYQSDVGRRRNTNQDYASVFTSRSGLKLAVLADGMGGHRAGDIASQMAVTNLGEAWEKQEAVDDEKIAQWFIQSIQEENMLIYQRGQEQPEYNGMGTTIVAAALSDDWFTIANVGDSRAYLIREDKIMQLTEDHSLVNELVKSGEISEEMAVNHPRKNILTRSVGMPGTVEVDVSTHLWQLKDRLLLCSDGLTNMLSEEEIGTIINQEGPLSHKVTELIDRANEAGGADNITVLLIEYKEDSV"}},
  "substrate": "O=[N+]([O-])c1ccc(OP(=O)(O)O)cc1",
  "assay": "purified protein",
  "conditions": "2 mM Mn2+, 50 mM Tris-HCl pH 8.0, 37 °C",
  "data": [
    {"protein": "B1", "values": [
      {"measurement": "Km", "value": "660 ± 90", "unit": "µM"},
      {"measurement": "kcat", "value": "1,200 ± 100 min^-1"},
      {"measurement": "kcat/Km", "value": "30000 ± 4830", "unit": "M⁻¹ s⁻¹"}
    ]}
  ]
}
